One substance from patent US20240218074A1 can be followed below.

Broadly, the EC50 is the concentration giving half of the maximal effect. Higher therefore signals weaker potency.

For test [1], the target named is human NT5E-Biotin (NT5E is GenbankID: NP_002517.1, position: 1-552) (human) (UniProt P21589). Kind of test: ELISA on streptavidin-captured human NT5E-Biotin; antibody 0 (blank well); replicate 1. Background: ELISA stands for enzyme-linked immunosorbent assay.
For test [2] the target is unchanged. Nature of the test: ELISA on streptavidin-captured human NT5E-Biotin; antibody 1:9 dilution of 0.333 ug/mL; replicate 2.
The target in test [3] is human CD73 expressed on cells (human PBMC CD8+ T cells and CD19+ B cells; endogenous CD73 of MDA-MB-231 and U87-MG cells) (human) (UniProt P21589). Nature of the test: cell-based or functional assay.
human CD73 expressed on cells (human PBMC CD8+ T cells and CD19+ B cells; endogenous CD73 of MDA-MB-231 and U87-MG cells) (human), sequence (P21589 27-549): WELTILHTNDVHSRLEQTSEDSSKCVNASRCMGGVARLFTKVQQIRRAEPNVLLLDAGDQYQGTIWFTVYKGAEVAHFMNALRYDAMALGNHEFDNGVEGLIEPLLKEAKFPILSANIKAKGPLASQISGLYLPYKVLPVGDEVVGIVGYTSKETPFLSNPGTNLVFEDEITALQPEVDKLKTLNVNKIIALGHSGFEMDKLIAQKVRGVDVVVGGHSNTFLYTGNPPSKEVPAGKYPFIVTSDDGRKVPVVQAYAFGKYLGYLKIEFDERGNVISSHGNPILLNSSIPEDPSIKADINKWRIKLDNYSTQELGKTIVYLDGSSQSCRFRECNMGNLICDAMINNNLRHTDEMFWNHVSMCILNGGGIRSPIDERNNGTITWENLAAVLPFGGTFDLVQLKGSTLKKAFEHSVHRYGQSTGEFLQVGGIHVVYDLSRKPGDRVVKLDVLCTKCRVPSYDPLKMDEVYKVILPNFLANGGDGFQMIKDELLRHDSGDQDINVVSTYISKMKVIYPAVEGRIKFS
The target in test [4] is human NT5E-Biotin (NT5E is GenbankID: NP_002517.1, position: 1-552) (human) (UniProt P21589). Kind of test: ELISA on streptavidin-captured human NT5E-Biotin; antibody 0.333 ug/mL; replicate 1.
Test [5] has the same target. Kind of test: ELISA on streptavidin-captured human NT5E-Biotin; antibody 1:27 dilution of 0.333 ug/mL; replicate 1.
For test [6] the target is unchanged. Nature of the test: ELISA on streptavidin-captured human NT5E-Biotin; antibody 1:729 dilution of 0.333 ug/mL; replicate 2.
For test [7] the target is unchanged. Nature of the test: ELISA on streptavidin-captured human NT5E-Biotin; HRP goat anti-human IgG.
For test [8] the target is unchanged. Nature of the test: ELISA on streptavidin-captured human NT5E-Biotin; antibody 0.333 ug/mL; replicate 2.
Test [9] shares this target. Nature of the test: ELISA on streptavidin-captured human NT5E-Biotin; antibody 1:9 dilution of 0.333 ug/mL; replicate 1.
For test [10] the target is unchanged. Kind of test: ELISA on streptavidin-captured human NT5E-Biotin; antibody 1:27 dilution of 0.333 ug/mL; replicate 2.
The target is the same in test [11]. Nature of the test: ELISA on streptavidin-captured human NT5E-Biotin; antibody 1:81 dilution of 0.333 ug/mL; replicate 1.
Test [12] shares this target. Nature of the test: ELISA on streptavidin-captured human NT5E-Biotin; antibody 0 (blank well); replicate 2.
Test [13] shares this target. Nature of the test: ELISA on streptavidin-captured human NT5E-Biotin; antibody 1:81 dilution of 0.333 ug/mL; replicate 2.
For test [14] the target is unchanged. Nature of the test: ELISA on streptavidin-captured human NT5E-Biotin; antibody 1:243 dilution of 0.333 ug/mL; replicate 2.
For test [15] the target is unchanged. Nature of the test: ELISA on streptavidin-captured human NT5E-Biotin; antibody 1:3 dilution of 0.333 ug/mL; replicate 2.
Test [16] shares this target. Kind of test: ELISA on streptavidin-captured human NT5E-Biotin; antibody 1:243 dilution of 0.333 ug/mL; replicate 1.
The target is the same in test [17]. Nature of the test: ELISA on streptavidin-captured human NT5E-Biotin; antibody 1:729 dilution of 0.333 ug/mL; replicate 1.
The target is the same in test [18]. Kind of test: ELISA on streptavidin-captured human NT5E-Biotin; antibody 1:3 dilution of 0.333 ug/mL; replicate 1.

human NT5E-Biotin (NT5E is GenbankID: NP_002517.1, position: 1-552) (human), sequence (P21589 27-552 limits assumed, form in doubt): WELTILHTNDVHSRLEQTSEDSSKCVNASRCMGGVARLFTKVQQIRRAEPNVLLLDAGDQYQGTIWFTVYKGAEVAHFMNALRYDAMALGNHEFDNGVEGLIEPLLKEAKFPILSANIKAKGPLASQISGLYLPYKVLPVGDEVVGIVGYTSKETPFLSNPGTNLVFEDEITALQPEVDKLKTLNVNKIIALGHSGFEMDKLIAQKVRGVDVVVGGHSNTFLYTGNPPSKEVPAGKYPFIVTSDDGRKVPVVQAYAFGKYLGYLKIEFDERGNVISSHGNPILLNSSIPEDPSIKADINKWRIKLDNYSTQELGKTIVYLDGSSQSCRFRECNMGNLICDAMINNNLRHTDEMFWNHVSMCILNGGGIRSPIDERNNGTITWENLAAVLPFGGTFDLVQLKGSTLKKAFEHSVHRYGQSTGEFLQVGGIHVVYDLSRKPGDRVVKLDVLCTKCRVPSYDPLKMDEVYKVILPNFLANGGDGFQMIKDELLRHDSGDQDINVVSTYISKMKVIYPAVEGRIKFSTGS

As for “positive control antibody MEDI9447 (Oleclumab)”, the OD (450 nm) in test [1] was 0.121 OD450; in test [2], 2.28 OD450; in [4], 2.55 OD450; in test [5], 1.77 OD450; in test [6] it was 0.275 OD450; in test [8] it was 2.53 OD450. For the same substance, the OD (450 nm) in test [9] came to 2.27 OD450; in [10], 1.74 OD450; in test [11], 1.06 OD450; in test [12], 0.116 OD450; in test [13], 1.03 OD450; in test [14], 0.528 OD450. Also, the OD (450 nm) is 2.6 OD450 in test [15], 0.536 OD450 in test [16], 0.272 OD450 in test [17] and 2.57 OD450 in [18]. Moreover, the Inhibition rate EC50 (nM): enzyme activity of CD73 expressed by human PBMC membrane (AMP/ATP CellTiter-Glo read-out) in [3] was 0.0064 nM. Also, the internalization rate of CD73 in MDA-MB-231 cells after 22 hours (FACS) in test [3] is 50.5%. Further, the internalization rate of CD73 in U87-MG cells after 22 hours (FACS) in [3] turned out to be 73.7%. Further, the EC50 in [7] came out at 0.048 nM.
